Laboratory results reported in article PMC6274577 (2016).
Several values for one entry are separate records, joined by “and”; a condition that tells them apart may be missing. Equal values may be shown once.

Experiments:
[1] = molecular target: recombinant extracellular domain of human interleukin-11 receptor subunit α (M1-V363) with a fused polyhistidine tag at the C-terminus (human) (UniProt Q14626)
[2] = molecular target: sIL-11Rα ECD (Homo sapiens) (UniProt Q14626); experiment: SPR; settings: cited from earlier work
[3] = molecular target: IL-11Rα (Mus musculus) (UniProt Q64385); experiment: cell binding; settings: cited from earlier work
Sequence of IL-11Rα (Mus musculus) (Q64385 24-372): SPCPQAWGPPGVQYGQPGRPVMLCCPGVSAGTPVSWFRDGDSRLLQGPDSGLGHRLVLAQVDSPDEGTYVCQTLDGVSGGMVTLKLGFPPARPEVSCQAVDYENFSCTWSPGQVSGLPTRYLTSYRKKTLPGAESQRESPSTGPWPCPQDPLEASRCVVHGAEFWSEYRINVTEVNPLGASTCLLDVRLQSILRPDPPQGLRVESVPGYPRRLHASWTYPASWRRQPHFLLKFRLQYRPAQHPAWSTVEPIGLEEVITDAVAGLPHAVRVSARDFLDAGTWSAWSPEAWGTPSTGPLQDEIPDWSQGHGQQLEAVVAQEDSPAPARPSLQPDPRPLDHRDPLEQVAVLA

[4] = molecular target: T1, sIL-11Rα ECD (Homo sapiens, UniProt Q14626); experiment: SPR
T1 chain: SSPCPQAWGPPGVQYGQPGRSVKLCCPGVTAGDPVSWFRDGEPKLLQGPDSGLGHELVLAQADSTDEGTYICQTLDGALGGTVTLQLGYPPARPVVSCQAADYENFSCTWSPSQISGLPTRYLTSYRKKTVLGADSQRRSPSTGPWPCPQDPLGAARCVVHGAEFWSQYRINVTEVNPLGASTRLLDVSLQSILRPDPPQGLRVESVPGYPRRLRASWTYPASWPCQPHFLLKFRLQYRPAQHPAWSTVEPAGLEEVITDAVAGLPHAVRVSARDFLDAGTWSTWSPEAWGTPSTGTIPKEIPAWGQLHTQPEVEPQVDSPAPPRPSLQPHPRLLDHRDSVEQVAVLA

[5] = molecular target: murine recombinant interleukin-11 (rIL-11), Mus musculus, mature protein lacking Pro1 (Mus musculus) (UniProt P47873); experiment: SPR; biotinylated rIL-11 immobilised on NeutrAvidin NLC sensor chip (up to 2000 RU); 5-80 nM sIL-11Rα as analyte; 25 °C; PBS, 0.05% TWEEN 20, pH 7.4; heterogeneous ligand model (two ligand populations)
[6] = molecular target: macaque recombinant interleukin-11 (rIL-11), Macaca fascicularis, mature protein lacking Pro1 (Macaca fascicularis) (UniProt P20808); experiment: as above

Which EC50 of STAT3 activation (SEAP secretion, QUANTI-Blue assay) in HEK-Blue IL-6 cells stably transfected with human IL-11Rα gene [1] does the source give for “murine recombinant interleukin-11 (rIL-11), Mus musculus, mature protein lacking Pro1 (from UniProt P47873 23-199) (ligand)” here?
The EC50 of STAT3 activation (SEAP secretion, QUANTI-Blue assay) in HEK-Blue IL-6 cells stably transfected with human IL-11Rα gene was 0.084 nM.

For “macaque recombinant interleukin-11 (rIL-11), Macaca fascicularis, mature protein lacking Pro1 (from UniProt P20808 23-199) (ligand)”, which EC50 of STAT3 activation (SEAP secretion, QUANTI-Blue assay) in HEK-Blue IL-6 cells stably transfected with human IL-11Rα gene [1] is on record?
The EC50 of STAT3 activation (SEAP secretion, QUANTI-Blue assay) in HEK-Blue IL-6 cells stably transfected with human IL-11Rα gene was 0.006 nM.

With IL-11 (from UniProt P20809) as the molecule, how does the Kd [2] read?
The Kd was 21.9 nM and 7 nM.

For IL-11 (from UniProt P47873), which Kd [3] is on record?
The Kd was 10 nM.

B1: IL-11 (protein)
chain: PGPPPGSPRASPDPRAELDSTVLLTRSLLEDTRQLTIQLKDKFPADGDHNLDSLPTLAMSAGALGALQLPSVLTRLRADLLSYLRHVQWLRRAMGSSLKTLEPELGTLQTRLDRLLRRLQLLMSRLALPQLPPDPPAPPLAPPSSTWGGIRAAHAILGGLHLTLDWAVRGLLLLKTRL
With B1 as the molecule, how does the Kd [4] read?
The Kd was 8.9 nM and 4.2 nM.

B2: recombinant extracellular domain of human interleukin-11 receptor subunit α (M1-V363) with a fused polyhistidine tag at the C-terminus (receptor)
chain: SSPCPQAWGPPGVQYGQPGRSVKLCCPGVTAGDPVSWFRDGEPKLLQGPDSGLGHELVLAQADSTDEGTYICQTLDGALGGTVTLQLGYPPARPVVSCQAADYENFSCTWSPSQISGLPTRYLTSYRKKTVLGADSQRRSPSTGPWPCPQDPLGAARCVVHGAEFWSQYRINVTEVNPLGASTRLLDVSLQSILRPDPPQGLRVESVPGYPRRLRASWTYPASWPCQPHFLLKFRLQYRPAQHPAWSTVEPAGLEEVITDAVAGLPHAVRVSARDFLDAGTWSTWSPEAWGTPSTGTIPKEIPAWGQLHTQPEVEPQVDSPAPPRPSLQPHPRLLDHRDSV
With B2 as the molecule, how does the Kd1 (KD, ligand population 1) [5] read?
The Kd1 (KD, ligand population 1) was 2.2 nM.

And the Kd2 (KD, ligand population 2) [5]?
Its Kd2 (KD, ligand population 2) is 14.6 nM.

What about the kd1 (koff, ligand population 1) [5] of the same molecule?
The kd1 (koff, ligand population 1) was 0.0007 s⁻¹.

What about the kd2 (koff, ligand population 2) [5] of the same molecule?
The kd2 (koff, ligand population 2) was 0.0061 s⁻¹.

And the Kd1 (KD, ligand population 1) [6]?
Its Kd1 (KD, ligand population 1) is 4.2 nM.

What about the Kd2 (KD, ligand population 2) [6] of the same molecule?
The Kd2 (KD, ligand population 2) was 8.9 nM.

And the kd1 (koff, ligand population 1) [6]?
Its kd1 (koff, ligand population 1) is 0.000815 s⁻¹.

What about the kd2 (koff, ligand population 2) [6] of the same molecule?
Its kd2 (koff, ligand population 2) is 0.0038 s⁻¹.
